According to PMC7948536:

What was measured:
[1] = biological target: E3 SCF^βTrCP (neddylated; Skp1–βTrCP with Nedd8–ROC1–CUL1) (UniProt P63208)
[2] = biological target: E3 SCF^βTrCP (neddylated; Skp1–βTrCP with Nedd8–ROC1–CUL1) (UniProt P63208); remark: listed apart in the source
[3] = biological target: E3 SCF^βTrCP (neddylated; Skp1–βTrCP with Nedd8–ROC1–CUL1) (UniProt P63208); remark: listed apart in the source

FRET IκBα diubiquitination in test tube, time course to 10 min: IκBα–Ub2 product by gel, FRET signal rising alike (Fig. 2A) [1]: > 30%
real-time FRET IκBα diubiquitination, 30 °C, 30 min; conversion of substrate by gel analysis (Fig. 3A, B) [2]: 85%
real-time FRET IκBα diubiquitination under single-round turnover condition (preformed complexes treated with apyrase) (Fig. 4) [3]: 20%
Substance: IκBα (EE)–Ub (E64C)–I647 (from UniProt P25963 1-20; P0CG48 1-74; P25963 23-54)
